Earlier results on two substances are cited in US20040120897A1, “Method for administering insulinotropic peptides” (priority 1998, published 2004).

For this series the following is noted: calculated, background statement.

Turning to “glycosylated α1-antitrypsin: protein cited in the background for its pulmonary absorption value”, the “absorption value after delivery through the lungs” value is 48 h. With “parathyroid hormone (1-34): peptide hormone cited in the background for its pulmonary absorption value”, the “absorption value after delivery through the lungs” value is on record as “fifteen”.
